Patent US20120269821A1

Assays:
Assay in all cases: cell-based or functional assay
[1] = target: B.BG1168 envelope (HIV-1)
B.SF162 envelope (HIV-1) = target: B.SF162 envelope (HIV-1)
C.TV-1 envelope (HIV-1) = target: C.TV-1 envelope (HIV-1)
[2] = target: CAP206.1.B5 envelope (HIV-1)
[3] = target: Du156.12 envelope (HIV-1)
Du422.1 envelope (HIV-1) = target: Du422.1 envelope (HIV-1)
[4] = target: QH0692.42 envelope (HIV-1)
[5] = target: SC422661.8 envelope (HIV-1)
TRO.11 envelope (HIV-1) = target: TRO.11 envelope (HIV-1)
[6] = target: ZM197M.PB7 envelope (HIV-1)
[7] = target: COT6.15 envelope A662G (HIV-1)
[8] = target: COT6.15 envelope D664A (HIV-1)
[9] = target: COT6.15 envelope D674A (HIV-1)
[10] = target: COT6.15 envelope D674N (HIV-1)
[11] = target: COT6.15 envelope D674S (HIV-1)
[12] = target: COT6.15 envelope F673A (HIV-1)
[13] = target: COT6.15 envelope I675A (HIV-1)
[14] = target: COT6.15 envelope K667A (HIV-1)
[15] = target: COT6.15 envelope K677A (HIV-1)
[16] = target: COT6.15 envelope L663A (HIV-1)
[17] = target: COT6.15 envelope L669A (HIV-1)
[18] = target: COT6.15 envelope L679A (HIV-1)
[19] = target: COT6.15 envelope N668A (HIV-1)
[20] = target: COT6.15 envelope S665A (HIV-1)
[21] = target: COT6.15 envelope S671A (HIV-1)
[22] = target: COT6.15 envelope T676A (HIV-1)
[23] = target: COT6.15 envelope W666A (HIV-1)
[24] = target: COT6.15 envelope W670A (HIV-1)
[25] = target: COT6.15 envelope W672A (HIV-1)
[26] = target: COT6.15 envelope W678A (HIV-1)
[27] = target: COT6.15 envelope W680A (HIV-1)
[28] = target: COT6.15 envelope, wild type (HIV-1)

mAb 2F5 (Polymun Scientific) (antibody)
50% neutralization level [1]: 0.32 µg/mL | 50% neutralization level (B.SF162 envelope (HIV-1)): 0.1 µg/mL | 50% neutralization level (C.TV-1 envelope (HIV-1)): 10.9 µg/mL | IC50 in TZM-bl cells [2]: > 25000 µg/mL | IC50 in TZM-bl/FcγRI cells [2]: > 25000 µg/mL | IC50 in TZM-bl cells [3]: > 25000 µg/mL | IC50 in TZM-bl/FcγRI cells [3]: > 25000 µg/mL | IC50 in TZM-bl cells (Du422.1 envelope (HIV-1)): > 25000 µg/mL | IC50 in TZM-bl/FcγRI cells (Du422.1 envelope (HIV-1)): > 25000 µg/mL | IC50 in TZM-bl cells [4]: 1810 µg/mL | IC50 in TZM-bl/FcγRI cells [4]: < 10 µg/mL | IC50 in TZM-bl/FcγRI cells [5]: < 10 µg/mL | IC50 in TZM-bl cells (TRO.11 envelope (HIV-1)): > 25000 µg/mL | IC50 in TZM-bl cells [6]: > 25000 µg/mL | IC50 in TZM-bl/FcγRI cells [6]: 60 µg/mL

mAb 4E10 (antibody)
IC50 in TZM-bl cells [2]: 0.1 | IC50 in TZM-bl/FcγRI cells [2]: < 10 µg/mL | IC50, pseudovirus neutralization [7]: 0.12 µg/mL | Ratio (mutant IC50)/(wild-type IC50) [7]: 0.1 | IC50, pseudovirus neutralization [8]: 0.77 µg/mL | Ratio (mutant IC50)/(wild-type IC50) [8]: 0.9 | IC50, pseudovirus neutralization [9]: 1.4 µg/mL | Ratio (mutant IC50)/(wild-type IC50) [9]: 1.6 | IC50, pseudovirus neutralization [10]: 0.33 µg/mL | Ratio (mutant IC50)/(wild-type IC50) [10]: 0.4 | IC50, pseudovirus neutralization [11]: 2.49 µg/mL | Ratio (mutant IC50)/(wild-type IC50) [11]: 2.8 | IC50, pseudovirus neutralization [12]: > 25 µg/mL | Ratio (mutant IC50)/(wild-type IC50) [12]: > 25 | IC50, pseudovirus neutralization [13]: 0.04 µg/mL | Ratio (mutant IC50)/(wild-type IC50) [13]: 0 | IC50, pseudovirus neutralization [14]: 0.05 µg/mL | Ratio (mutant IC50)/(wild-type IC50) [14]: 0.1 | IC50, pseudovirus neutralization [15]: 0.05 µg/mL | Ratio (mutant IC50)/(wild-type IC50) [15]: 0.1 | IC50, pseudovirus neutralization [16]: 0.02 µg/mL | Ratio (mutant IC50)/(wild-type IC50) [16]: 0 | IC50, pseudovirus neutralization [17]: 0.05 µg/mL | Ratio (mutant IC50)/(wild-type IC50) [17]: 0.1 | IC50, pseudovirus neutralization [18]: 0.09 µg/mL | Ratio (mutant IC50)/(wild-type IC50) [18]: 0.1 | IC50, pseudovirus neutralization [19]: 1.3 µg/mL | Ratio (mutant IC50)/(wild-type IC50) [19]: 1.4 | IC50, pseudovirus neutralization [20]: 0.14 µg/mL | Ratio (mutant IC50)/(wild-type IC50) [20]: 0.2 | IC50, pseudovirus neutralization [21]: 0.04 µg/mL | Ratio (mutant IC50)/(wild-type IC50) [21]: 0 | IC50, pseudovirus neutralization [22]: 21.8 µg/mL | Ratio (mutant IC50)/(wild-type IC50) [22]: 24.2 | IC50, pseudovirus neutralization [23]: 0.51 µg/mL | Ratio (mutant IC50)/(wild-type IC50) [23]: 0.6 | IC50, pseudovirus neutralization [24]: 0.11 µg/mL | Ratio (mutant IC50)/(wild-type IC50) [24]: 0.1 | IC50, pseudovirus neutralization [25]: > 25 µg/mL | Ratio (mutant IC50)/(wild-type IC50) [25]: > 25 | IC50, pseudovirus neutralization [26]: 0.05 µg/mL | Ratio (mutant IC50)/(wild-type IC50) [26]: 0.1 | IC50, pseudovirus neutralization [27]: 10.9 µg/mL | Ratio (mutant IC50)/(wild-type IC50) [27]: 12.1 | IC50, pseudovirus neutralization [28]: 0.9 µg/mL | IC50 in TZM-bl cells [3]: 200 µg/mL | IC50 in TZM-bl/FcγRI cells [3]: < 10 µg/mL | IC50 in TZM-bl cells (Du422.1 envelope (HIV-1)): 300 µg/mL | IC50 in TZM-bl/FcγRI cells (Du422.1 envelope (HIV-1)): < 10 µg/mL | IC50 in TZM-bl cells [4]: 6500 µg/mL | IC50 in TZM-bl/FcγRI cells [4]: 110 µg/mL | IC50 in TZM-bl/FcγRI cells [5]: < 10 µg/mL | IC50 in TZM-bl cells (TRO.11 envelope (HIV-1)): 300 µg/mL | IC50 in TZM-bl cells [6]: 1100 µg/mL | IC50 in TZM-bl/FcγRI cells [6]: < 10 µg/mL

mAb Z13e1 (antibody)
IC50 in TZM-bl cells [3]: 4700 µg/mL | IC50 in TZM-bl cells [4]: 46000 µg/mL | IC50 in TZM-bl cells (TRO.11 envelope (HIV-1)): 13300 µg/mL | IC50 in TZM-bl cells [6]: 30

recombinant 2F5 IgG antibody
50% neutralization level [1]: 1.17 µg/mL | 50% neutralization level (B.SF162 envelope (HIV-1)): 0.3 µg/mL | 50% neutralization level (C.TV-1 envelope (HIV-1)): 34.5 µg/mL
